Test results from patent US20190002514A1 (Dana-Farber, published 2019).
Numbering of substitutions follows the chain as printed. Names may count otherwise. Starred links: 1 amine or outer side, 2 acyl side, 3 side chain; linkers in the order of their positions; H or OH if unused. Positions of bridges follow the written chain, without caps; N, C: chain ends. Non-standard residues stand in square brackets, D forms with d. No end group written: not given here. *: point of attachment. Nip(3R) = O=C([C@@H]1CCCN([*:1])C1)[*:2]; S5 = C=CCCC[C@](C)(N)C(=O)O; Acryloyl = C=CC(=O)*

Assays:
[1] = biological target: T1, BFL-1ΔC C4S/C19S (human, UniProt Q16548 1-153); experiment: covalent conjugation, 10:1 peptide:protein, reducing and denaturing gel, Coomassie
T1 construct: range 1-153; Recombinant, E. coli; made by site-directed mutagenesis; also called His-BFL-1ΔC C4S/C19S; C55-only BFL-1; not shown: N-terminal His tag from the pET19b vector
T1 sequence (looked up): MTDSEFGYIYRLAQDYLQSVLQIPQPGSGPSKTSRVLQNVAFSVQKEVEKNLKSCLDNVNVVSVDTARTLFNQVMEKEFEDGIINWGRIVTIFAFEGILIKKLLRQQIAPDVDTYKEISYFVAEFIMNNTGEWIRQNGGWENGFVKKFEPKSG
Procedure: Processing for gel electrophoresis and Coomassie staining was performed as above.

[2] = biological target: T2, BFL-1ΔC (aa 1-153) (human, UniProt Q16548 1-153); experiment: covalent conjugation assay, gel shift
T2 construct: Recombinant, expressed in E. coli; the recombinant construct's species is not restated; also called wild-type BFL-1ΔC; BFL-1 WT; not shown: N-terminal His tag and vector-derived linker of pET19b
T2 sequence: T1 sequence (looked up) with S4C, S19C

[3] = biological target: T3, native BFL-1 (A375P melanoma cells) (human, UniProt Q16548 1-175); experiment: A375P lysates with biotinylated peptides, streptavidin pull-down, BFL-1 western analysis; also biotinylation of purified mitochondria
T3 construct: also called native mitochondrial BFL-1
T3 sequence: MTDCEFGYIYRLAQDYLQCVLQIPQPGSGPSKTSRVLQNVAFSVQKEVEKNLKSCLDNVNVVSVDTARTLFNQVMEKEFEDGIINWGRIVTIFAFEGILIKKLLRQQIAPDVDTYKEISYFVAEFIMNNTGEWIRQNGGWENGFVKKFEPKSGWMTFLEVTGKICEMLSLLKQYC

[4] = biological target: T4, HA-BFL-1ΔC C4S/C19S (human, UniProt Q16548 1-153); experiment: crosslinking in lysates of transfected 293T cells, anti-HA and biotin western analysis
T4 construct: range 1-153; tested in lysates and in intact cells; also called expressed BFL-1; not shown: HA tag
T4 sequence (looked up): T1 sequence (looked up)
Procedure: For lysate experiments, cells were trypsinized 24 hours post-transfection, washed with PBS, and lysed by incubation with 1% CHAPS lysis buffer (150 mM NaCl, 50 mM Tris pH 7.4, 100 mM DTT). Protein concentration of the soluble fraction was measured using a BCA kit according to manufacturer's instructions (Thermo Scientific). […] Samples were then boiled in LDS buffer and subjected to western analysis using 1:1000 dilutions of HA (Sigma-Aldrich, #12CA5) and biotin (Abcam, #53494) antibodies. […] After 24 h, cells were trypsinized, washed with PBS, lysed in 1% CHAPS buffer, and the supernatant collected for protein concentration determination by BCA kit. […] The mixtures were then subjected to HA or FLAG (Sigma-Aldrich, F7425) immunoprecipitation, followed by western analysis using 1:1000 dilutions of HA, FLAG, biotin, and BID (Santa Cruz sc-11423) antibodies. […] Cells were harvested and lysed as above, and incubated overnight with anti-HA agarose beads (Pierce). The beads were washed 3 times with lysis buffer, eluted by boiling in LDS buffer, and subjected to western analysis with HA and biotin antibodies.

[5] = biological target: T5, MCL-1 (recombinant protein of Examples 1-4) (UniProt Q07820 170-327, limits assumed); experiment: fluorescence polarization: FITC-labelled SAHB, anti-apoptotic protein serially diluted from 1 µM
T5 construct: also called MCL-I
T5 sequence (Q07820 170-327 limits assumed): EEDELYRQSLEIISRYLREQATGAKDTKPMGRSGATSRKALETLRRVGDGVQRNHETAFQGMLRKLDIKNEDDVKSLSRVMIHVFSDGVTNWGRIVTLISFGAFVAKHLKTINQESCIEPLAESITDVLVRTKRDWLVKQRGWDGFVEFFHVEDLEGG
Procedure: (§1) The solution-state equilibrium binding assay was used to determine binding affinities of the stapled peptides to the anti-apoptotic proteins. Proteins were serially diluted from 1 μM, then combined with FITC-labeled SAHB and polarization measured at 5 min on a microplate reader. We then calculated dissociation constants (KD) by nonlinear regression analysis of dose-response curves.

[6] = biological target: T6, Bfl-1 (recombinant protein of Examples 1-4) (UniProt Q16548 1-153, limits assumed); experiment: as above
T6 construct: also called 9xHis-tagged Bfl-1
T6 sequence (looked up): T1 sequence (looked up) with S4C, S19C
Procedure: as §1

[7] = biological target: T1, BFL-1ΔC C4S/C19S; experiment: biolayer interferometry (Octet RED384): biotin-PEG-NOXA SAHB on super streptavidin tips, BFL-1ΔC construct in solution
Procedure: (§2) Excess streptavidin was quenched by incubation with 2 μg/mL biocytin. The tips were then washed with kinetics buffer and soaked in a serial dilution of BFL-1ΔC for 10 min to measure association rate, followed by a 15 min incubation in kinetics buffer to measure dissociation rate. Dissociation constants were calculated using Octet Data Analysis version 9.0.

[8] = biological target: T2, BFL-1ΔC (aa 1-153); experiment: as above
Procedure: as §2

[9] = biological target: T7, BFL-1 C4S/C19S/C55S; experiment: as above
T7 construct: member of m33; m12 without cysteines; also called BFL-1ΔC C4S/C19S/C55S
T7 chain: T1 sequence (looked up) with C55S
Procedure: as §2

B1: BIM SAHBA bearing warhead 1 (peptide)
peptide: [(3S)‑1‑acryloylpyrrolidine‑3‑carboxylic acid]IAQELR[S5]IGD[S5]FNAYYARR
modifications: staple 8-12
notes: Member of the BIM SAHBA warhead panel 1-8
B1: binds [1].

B2: NOXA SAHBA bearing warhead 5 (peptide)
peptide: Acryloyl-PEVESATQLR[S5]FGD[S5]LNFRQKLL
modifications: staple 11-15; also: X1 proline L or D not settled
notes: Member of the NOXA SAHBA warhead panel 1-8
B2: binds [1].

B3: BIM SAHBA-3 (peptide)
peptide: [Nip(3R)](Acryloyl)IAQELR[S5]IGD[S5]FNAYYARR
modifications: staple 8-12
notes: Warhead-bearing BIM SAHBA (aa 147-166); also called BIM SAHBA-WH with warhead 3; biotinylated BIM SAHBA-3
B3: binds [2]; binds [3]; binds [1]. B3: binds [4].

B4: NOXA SAHBA bearing warhead 1 (peptide)
peptide: Acryloyl-[(3S)‑pyrrolidine‑3‑carboxylic acid]EVESATQLR[S5]FGD[S5]LNFRQKLL
modifications: staple 11-15
notes: as for B2
B4: binds [1].

B5: NOXA SAHBA (peptide)
peptide: AELEVECATQLR[S5]FGD[S5]LNFRQKLL
modifications: staple 13-17; also: N-terminal PEG-biotin or FITC depending on assay
notes: Stapled NOXA BH3 (aa 19-43) with native C25; also called WT NOXA SAHB; wild-type NOXA SAHBA
In the case of B5, the “EC50 (read off the curve)” value [5] is reported as ~200 nM, the “EC50 (read off the curve)” value [6] is reported as ~100 nM and the Kd [7] is reported as 165 nM. It also gave a Kd [8] of 122 nM and a Kd [9] of 118 nM.

B6: NOXA SAHBA F32Y (peptide)
peptide: AELEVECATQLR[S5]YGD[S5]LNFRQKLL
modifications: staple 13-17; also: FITC-labelled for FP assay
With B6 the binding result [5] was “no binding (tested: 1e-6 M)” and the “EC50 (read off the curve)” value [6] was ~200 nM.

B7: NOXA SAHBA C25S (peptide)
peptide: AELEVESATQLR[S5]FGD[S5]LNFRQKLL
modifications: staple 13-17; also: N-terminal PEG-biotin or FITC depending on assay
notes: Stapled NOXA BH3 with C25S; also called NOXA C25S SAHB; C25S mutant peptide
With B7 the Kd [7] was 47.2 nM, the Kd [8] was 46.6 nM and the Kd [9] was 58.2 nM.

B8: BIM SAHBA bearing warhead 8 (peptide)
peptide: Acryloyl-IAQELR[S5]IGD[S5]FNAYYARR
modifications: staple 7-11
notes: as for B1
B8: binds [1].
